Experiment: yeast display, Sf9 membrane polyspecificity reagent, FACS + sequencing; frameworks hold sequencing errors
How it was run: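 In a synthetic yeast display library (Saccharomyces cerevisiae BJ5465), nanobody expression was induced with galactose for 36–48 hours. FACS gates were set low and high (top ~1%) using anti-HA fluorescence for expression and streptavidin fluorescence for binding of the Sf9 membrane reagent. Each polyreactivity label is drawn from the gate of origin.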

Row | Sequence | polyreactivity (PSR sort gate)
1 | QVQLVESGGGLVQAGGSLRLSCDASGIIFYYNAMGWYRQAPGKERELVDRINSGGSTNYADSVKGRFTISRDNAKNTVDFQMTSMKPEDTAVYYCAARVRRWSYYGALFEYWGQGTQVTVSS | low polyreactivity
2 | QVQLVESGGGLVQAGGSLRLSCDASGITIRLYGMGWYRQAPGTERELVATITRDGRTYYADSVKGRFTISRDNAKNTVYLQMNSLKPEDTGVYYCARPARYSYGDGYWGQGTEVTVSS | low polyreactivity
3 | QVQLVESGGGLVQAGGSLRLSCDASGLTFDQYAMGWYRQGPGKERELVAAISGSDSTYYADSVKGRFTISRDNAKNTVYLQMNSLKPEDTAVYYCAASGDYVNIITGERFDARLYDYWGQGTQVTVSS | low polyreactivity
4 | QVQLVESGGGLVQAGGSLRLSCDASGNIFSDYTMGWYRQAPGKERELVAAISGDGGTTYYADSVKGRFTISRDNAKNTVYLQMNSLNPEDTAVYYCAADGYYDAYDQFFIVYYEYDYWGQGTQVTVSS | low polyreactivity
5 | QVQLVESGGGLVQAGGSLRLSCDASGNIFSWNTMGWYRKAPGKEWELVAAITFRVTRTFYADSVKGRFTISRDNAKNTVYFLMNSLNPEDTAVYYCAARYYYSYSLGYDYWGQGTQVTVSS | high polyreactivity
6 | QVQLVESGGGLVQAGGSLRLSCDASGNTFLYNTMGWYRQAPGKEREFVAAISGSGGSTYYADSVKGRFTISRDNAKYTVYLQMNSLKPEDTAVYYCNALWRRRKYDYWGEGTQVTVSS | high polyreactivity
7 | QVQLVESGGGLVQAGGSLRLSCDASGNTFRGYAMGWYRQAPGKERELVAAITSGGRTYYADSVKGRFTISRDNAKNTVYLQMNSLKPEDTAVYYCNAVLGRYVTYNYWGQGTQVTVSS | high polyreactivity
8 | QVQLVESGGGLVQAGGSLRLSCDASGRIFAYYTMGWNRQAPGKERELVAAINQSGGSTYYADSVKGRITISRDNAKNTDYLQMNILKPEDTAVYYCAAKRYSMYARRYAYVYWGQVTQVTVSS | low polyreactivity
9 | QVQLVESGGGLVQAGGSLRLSCDASGRIFHGNAMGWYRQAPGKEREFVAAITYGGGSTYYADSVKGRFTISRDNAKNTVYLQMNSLKPEDTAVYYCNARGARSNGVRGYYSKLNYWGQGTQVTVSS | high polyreactivity
10 | QVQLVESGGGLVQAGGSLRLSCDASGRIFLDYVMGWYRQAPGKERELVAAISWSGDRTDYADSVKGRFTISRDNAKNTVYLQMNSLKPEDTAVYYCATTWYFAYSDDYKFDYWGQGTQVTVSS | low polyreactivity
11 | QVQLVESGGGLVQAGGSLRLSCDASGRIFLHYAMRLYRQAPGTERELVAAISRSGGSTYYADSVKGRFTISRDNAKNTVYLQMNSLKPEDTAVYYCAADGPGDYLTLEWYWFTYYYWGQGTQVTVSS | high polyreactivity
12 | QVQLVESGGGLVQAGGSLRLSCDASGRIFLTNAMAWYRQAPGKERELVAAITSGVSTYYADSVKGRFTISRDNAKNTVYLQMNSLKPEDTAVYYCNADTDRYWPYEYDYWGQGTQVTVSS | low polyreactivity
13 | QVQLVESGGGLVQAGGSLRLSCDASGRIFYGYAMGWYRQAPGKERELVAAITYIGGTYYADSVKGRFTISRDNAKNTVYLQMNSMKPEDTAVYYCNALYRYLYRSGDFWGQGSQVTVSS | low polyreactivity
14 | QVQLVESGGGLVQAGGSLRLSCDASGRIFYNYAMGWYRQAPGTERELVAAISGSGGSTYYADSVKGRFTISRDNAKNTVYLQMNSLKPEDTAVYDCSTFGPQYYSRNFDYWGQGTLVTVSS | low polyreactivity
15 | QVQLVESGGGLVQAGGSLRLSCDASGRIFYSYDIGWYRQAHGKARELVATISSAGSTYYADSVKGRFTISRDNAKNTVYLQMNSLKPEDTAVYYSARRSGWWTRMDSWGQGTQVTVSS | high polyreactivity
16 | QVQLVESGGGLVQAGGSLRLSCDASGRIFYYYGMGWYRQAPGKERELVAAISNGGRTYYADSVKGRFTISRDNAKNTVYLQMNSLKPEDTAVYYCAALTRGRGGYDYWGQGTQVTVSS | high polyreactivity
17 | QVQLVESGGGLVQAGGSLRLSCDASGRILKYNAMGWYRQAPGKERELVAAISGSGGRTYYADSVKGRFTISRDNAKNTVYLQMNSLKPEDTAVYYCAASNASPGGFNYWGQGTQVTVSS | high polyreactivity

Source: the nanobody polyreactivity screen of Harvey et al. (2022)
